Experimental data from patent publication US20250236653A1.

Key:
[1] = biological target: human OX40 (human) (UniProt P43489); test: cell-based or functional assay
[2] = biological target: cynomolgus monkey OX40 (cynomolgus monkey); test: flow cytometry on cOX40-Jurkat-NF-κB cells
[3] = biological target: human OX40 (human) (UniProt P43489); test: flow cytometry, traditional IgG1 bivalent mAb on hOX40-Jurkat-NF-κB cells, APC anti-human IgG Fc detection

Chain of human OX40 (human) (P43489 29-277): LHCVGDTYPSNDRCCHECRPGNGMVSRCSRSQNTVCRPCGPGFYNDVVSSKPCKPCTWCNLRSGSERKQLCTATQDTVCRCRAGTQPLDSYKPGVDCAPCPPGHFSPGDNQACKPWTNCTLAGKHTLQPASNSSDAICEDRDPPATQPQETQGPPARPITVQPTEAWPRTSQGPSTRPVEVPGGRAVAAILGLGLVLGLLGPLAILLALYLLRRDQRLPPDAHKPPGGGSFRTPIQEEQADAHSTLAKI

percentage of GFP positive hOX40/hIL-12R/Jurkat-NF-κB reporter cells in the presence of A20-hFcγRI cells, EC50 [1]: 0.13 nM | fold difference of EC50 against hOX40-Jurkat-NF-κB cells [2]: < 2 fold | EC50 [3]: 10.2 nM
B1: hG1-20E5 (antibody, from another filing, V domains shown)
VH: EVQLQQSGPELVKPGASVKMSCKASGYTFTSYVMHWVKQKPGQGLEWIGYINPYNDGTKYNEKFKGKATLTSDKSSSTAYMELSSLTSEDSAVYYCANYYGSSLSMDYWGQGTSVTVSS
VL: DIQMTQTTSSLSASLGDRVTISCRASQDISNYLNWYQQKPDGTVKLLIYYTSRLHSGVPSRFSGSGSGTDYSLTISNLEQEDIATYFCQQGNTLPWTFGGGTKLEIKR
